From US20170326246A1 (INSTITUT PASTEUR, published 2017)
*1 amine or outer side, *2 acyl side, *3 side chain or, on linkers, in order; H or OH if unused. [ ]: non-standard residue; d: D form. U1 = 4-cyclohexylmethoxy-L-phenylalanine, O=C([C@H](Cc1ccc(OCC2CCCCC2)cc1)N[*:1])[*:2]; Bip = N[C@@H](Cc1ccc(-c2ccccc2)cc1)C(=O)O; Tpa = thiopropionic acid

B1: mCD4.1 (peptide)
peptide: Tpa-NLHKCQLRCSSLGLLGRCAGS[Bip]CACV-NH2
modifications: disulfide (positions not given here); also: three disulphide bridges, pairing not given here
B2: mCD4.3-PS1 (peptide)
peptide 1: NLHKCQLRCRSLGLLGRCAPTFCACV
peptide 2: SYDYSYDYSYDYS
modifications: not fully specified; N-terminal gamma-aminobutyric acid (gammaAbu) acylated with 3-thiopropionyl (from SATP); all six Tyr are sulfotyrosine (YSO3); N-terminal Tpa; D-proline at position 21; U1 (4-cyclohexylmethoxy-L-phenylalanine) at position 23; C-terminal amide; Lys5 N-epsilon carries the PEO2-maleimide linker bound to the thiol of the PS1 chain
B3: M48U1-PS1 (peptide)
peptide 1: NLHFCQLRCKSLGLLGRCAPTFCACV
peptide 2: SYDYSYDYSYDYS
modifications: not fully specified; N-terminal gamma-aminobutyric acid (gammaAbu) acylated with 3-thiopropionyl (from SATP); all six Tyr are sulfotyrosine (YSO3); N-terminal Tpa; D-proline at position 21; U1 (4-cyclohexylmethoxy-L-phenylalanine) at position 23; C-terminal amide; Lys11 N-epsilon carries the PEO2-maleimide linker bound to the thiol of the PS1 chain
B4: mCD4.2-PS1 (peptide)
peptide 1: NLHKCQLRCSSLGLLGRCAPTFCACV
peptide 2: SYDYSYDYSYDYS
modifications: not fully specified; N-terminal gamma-aminobutyric acid (gammaAbu) acylated with 3-thiopropionyl (from SATP); all six Tyr are sulfotyrosine (YSO3); N-terminal Tpa; D-proline at position 21; U1 (4-cyclohexylmethoxy-L-phenylalanine) at position 23; C-terminal amide; Lys5 N-epsilon carries the PEO2-maleimide linker bound to the thiol of the PS1 chain
B5: mCD4.1-PS1 (peptide)
peptide 1: NLHKCQLRCSSLGLLGRCAGSFCACV
peptide 2: SYDYSYDYSYDYS
modifications: N-terminal gamma-aminobutyric acid (gammaAbu) acylated with 3-thiopropionyl (from SATP); all six Tyr are sulfotyrosine (YSO3); N-terminal Tpa (thiopropionic acid); Bip at position 23; C-terminal …; Lys5 N-epsilon carries the PEO2-maleimide linker bound to the thiol of the PS1 chain

Experiments:
Assay in all cases: cell-based or functional assay
[1] = target: gp120 of viral strain IIIB (HIV, strain IIIB)
gp120 of viral strain MN = gp120 of viral strain MN (HIV, strain MN, UniProt P05877 32-513)
[2] = target: gp120 of viral strain SHIV162p3 (SHIV162p3)
[3] = target: gp120 of viral strain SF162 (HIV, strain SF162, UniProt P19550 32-502)
[4] = target: gp120 of viral strain VI829 (HIV, strain VI829)
[5] = target: gp120 of viral strain VI820 (HIV, strain VI820)
[6] = target: gp120 of viral strain VI1888 (CRF01) (HIV, strain VI1888 (CRF01))
[7] = target: gp120 of viral strain MP568 (CRF02) (HIV, strain MP568 (CRF02))
[8] = target: gp120 of viral strain VI824 (HIV, strain VI824)
[9] = target: gp120 of viral strain Ca10-3 (CRF01) (HIV, strain Ca10-3 (CRF01))
[10] = target: gp120 of viral strain p246F10 (HIV, strain p246F10)
[11] = target: gp120 of viral strain pREJO.c/2864 cl2 (HIV, strain pREJO.c/2864 cl2)
[12] = target: gp120 of viral strain Bal (HIV, strain Bal)

Binder	EC50 (antiviral activity, TZM-bl cells, luciferase) [1] [nM]	EC50 (antiviral activity, TZM-bl cells, luciferase) (gp120 of viral strain MN) [nM]	EC50 (antiviral activity, TZM-bl cells, luciferase) [2] [nM]	EC50 (antiviral activity, TZM-bl cells, luciferase) [3] [nM]	EC50 (antiviral activity, TZM-bl cells, luciferase) [4] [nM]	EC50 (antiviral activity, TZM-bl cells, luciferase) [5] [nM]	EC50 (antiviral activity, TZM-bl cells, luciferase) [6] [nM]	EC50 (antiviral activity, TZM-bl cells, luciferase) [7] [nM]	EC50 (antiviral activity, TZM-bl cells, luciferase) [8] [nM]	EC50 (antiviral activity, TZM-bl cells, luciferase) [9] [nM]	EC50 (antiviral activity, TZM-bl cells, luciferase) [10] [nM]	EC50 (antiviral activity, TZM-bl cells, luciferase) [11] [nM]	EC50 (antiviral activity, TZM-bl cells, luciferase) [12] [nM]
Tpa-NLHKCQLRCSSLGLLGRCA[dP]T[U1]CACV-NH2 (disulfide (positions not given here)) [mCD4.2]	0.22	0.6	69	1.24	512	6.1	9760	155	56	4.73	718	76	2
Tpa-NLHKCQLRCRSLGLLGRCA[dP]T[U1]CACV-NH2 (disulfide (positions not given here)) [mCD4.3]	0.16	0.37	29	0.66	221	4.2	8020	204	39	3.1	510	46	2.3
B1	29	20	5370	130	> 10000	1690	> 1000	7930	3180	96	> 10000	108	236
B2	0.0025	0.026	1.4	0.008	3.6	0.024	1210	4.2	0.7	0.076	33	0.28	0.031
B3	0.02	0.12	3.4	0.05	1.1	0.1	1070	15	2.2	0.6	–	–	0.13
B4	0.007	0.046	2.2	0.01	4	0.031	1060	4.9	0.68	0.12	58	0.27	0.034
Tpa-NLHFCQLRCKSLGLLGRCA[dP]T[U1]CACV-NH2 (disulfide (positions not given here)) [M48U1]	0.08	0.25	24	1	59	3.8	8420	129	29	2.7	–	–	0.96
B5	0.013	0.08	36	0.11	16	25	1100	310	40	0.57	723	0.66	0.54
